In patent publication US20130149248A1:
Read-outs that look alike come from different tables or passages of the source.

Legend:
[1] = target: αvβ6 on VB6 cells (human) (UniProt P06756); assay: cell-based or functional assay
[2] = target: T1, αvβ6 on 3T3β6.19 cells (mouse; human), P43406; assay: cell-based or functional assay
T1 chain 1: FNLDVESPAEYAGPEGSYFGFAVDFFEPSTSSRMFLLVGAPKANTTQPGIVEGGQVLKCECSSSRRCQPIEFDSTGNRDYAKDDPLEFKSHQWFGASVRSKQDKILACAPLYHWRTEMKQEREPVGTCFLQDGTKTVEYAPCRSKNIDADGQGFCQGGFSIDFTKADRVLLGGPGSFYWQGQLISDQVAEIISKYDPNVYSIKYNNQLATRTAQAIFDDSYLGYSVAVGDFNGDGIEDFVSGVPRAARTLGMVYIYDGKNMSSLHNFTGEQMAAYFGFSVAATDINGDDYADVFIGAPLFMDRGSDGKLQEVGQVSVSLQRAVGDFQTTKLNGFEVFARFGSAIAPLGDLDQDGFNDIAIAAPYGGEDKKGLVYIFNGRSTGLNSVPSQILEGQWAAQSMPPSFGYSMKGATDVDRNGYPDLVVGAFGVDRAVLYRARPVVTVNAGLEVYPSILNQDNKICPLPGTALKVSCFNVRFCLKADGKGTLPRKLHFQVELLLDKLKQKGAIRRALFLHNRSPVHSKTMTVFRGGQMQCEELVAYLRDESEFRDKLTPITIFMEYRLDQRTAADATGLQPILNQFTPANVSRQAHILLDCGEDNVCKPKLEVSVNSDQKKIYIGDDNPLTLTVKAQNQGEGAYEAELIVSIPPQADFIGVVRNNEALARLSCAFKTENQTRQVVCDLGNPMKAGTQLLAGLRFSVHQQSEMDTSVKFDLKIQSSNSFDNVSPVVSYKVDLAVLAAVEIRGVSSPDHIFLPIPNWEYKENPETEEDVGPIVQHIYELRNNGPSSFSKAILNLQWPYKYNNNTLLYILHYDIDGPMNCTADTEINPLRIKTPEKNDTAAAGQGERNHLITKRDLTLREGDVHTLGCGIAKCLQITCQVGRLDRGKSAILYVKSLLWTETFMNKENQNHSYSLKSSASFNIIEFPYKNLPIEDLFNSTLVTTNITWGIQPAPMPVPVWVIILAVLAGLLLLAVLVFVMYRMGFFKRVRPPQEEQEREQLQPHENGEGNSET
T1 chain 2: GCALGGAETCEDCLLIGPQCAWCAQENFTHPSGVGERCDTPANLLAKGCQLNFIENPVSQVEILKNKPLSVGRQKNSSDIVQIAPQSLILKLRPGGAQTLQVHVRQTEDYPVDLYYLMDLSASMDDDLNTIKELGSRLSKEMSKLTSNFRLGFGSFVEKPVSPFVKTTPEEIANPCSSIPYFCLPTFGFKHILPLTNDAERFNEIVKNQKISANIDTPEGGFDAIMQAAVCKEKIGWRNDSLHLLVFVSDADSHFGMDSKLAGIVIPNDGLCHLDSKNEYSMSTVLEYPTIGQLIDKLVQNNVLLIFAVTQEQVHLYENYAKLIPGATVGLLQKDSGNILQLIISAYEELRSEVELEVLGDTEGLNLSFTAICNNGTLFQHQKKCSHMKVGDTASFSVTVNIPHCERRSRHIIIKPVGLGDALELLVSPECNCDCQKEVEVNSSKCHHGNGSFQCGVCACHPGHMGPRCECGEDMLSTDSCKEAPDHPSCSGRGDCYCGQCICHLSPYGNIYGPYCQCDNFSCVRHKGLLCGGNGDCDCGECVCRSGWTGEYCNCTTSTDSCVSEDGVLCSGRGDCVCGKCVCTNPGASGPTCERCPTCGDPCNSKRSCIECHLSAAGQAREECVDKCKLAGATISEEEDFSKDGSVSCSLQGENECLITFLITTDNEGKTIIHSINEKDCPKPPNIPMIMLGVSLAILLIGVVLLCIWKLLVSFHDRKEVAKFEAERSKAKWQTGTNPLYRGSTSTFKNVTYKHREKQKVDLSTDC

[3] = target: T2, recombinant soluble αvβ6, P06756
T2 chain 1: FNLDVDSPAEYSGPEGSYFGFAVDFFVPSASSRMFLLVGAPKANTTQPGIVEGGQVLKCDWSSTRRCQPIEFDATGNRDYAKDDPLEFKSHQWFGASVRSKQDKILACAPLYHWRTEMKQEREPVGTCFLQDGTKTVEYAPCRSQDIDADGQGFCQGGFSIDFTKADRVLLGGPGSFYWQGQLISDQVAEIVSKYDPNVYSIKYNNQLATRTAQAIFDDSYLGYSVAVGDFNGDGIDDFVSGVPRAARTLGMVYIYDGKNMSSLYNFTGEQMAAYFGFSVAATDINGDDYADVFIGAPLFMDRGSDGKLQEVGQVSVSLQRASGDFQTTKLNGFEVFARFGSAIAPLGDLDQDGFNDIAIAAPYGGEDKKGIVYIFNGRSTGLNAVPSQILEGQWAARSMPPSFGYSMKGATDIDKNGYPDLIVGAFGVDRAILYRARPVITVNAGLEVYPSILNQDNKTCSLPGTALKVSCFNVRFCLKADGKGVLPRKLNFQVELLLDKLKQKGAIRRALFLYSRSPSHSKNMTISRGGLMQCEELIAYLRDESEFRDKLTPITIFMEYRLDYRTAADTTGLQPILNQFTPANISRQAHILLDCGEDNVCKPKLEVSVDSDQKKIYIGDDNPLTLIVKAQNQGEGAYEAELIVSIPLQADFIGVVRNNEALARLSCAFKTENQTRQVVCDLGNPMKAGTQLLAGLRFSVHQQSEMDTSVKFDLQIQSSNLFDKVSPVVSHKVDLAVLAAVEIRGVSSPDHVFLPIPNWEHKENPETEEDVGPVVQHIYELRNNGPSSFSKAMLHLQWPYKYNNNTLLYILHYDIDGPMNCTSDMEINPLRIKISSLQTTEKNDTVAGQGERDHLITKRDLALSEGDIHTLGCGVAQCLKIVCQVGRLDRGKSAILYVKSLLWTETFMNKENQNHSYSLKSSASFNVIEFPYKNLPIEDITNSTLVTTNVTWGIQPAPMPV
T2 chain 2: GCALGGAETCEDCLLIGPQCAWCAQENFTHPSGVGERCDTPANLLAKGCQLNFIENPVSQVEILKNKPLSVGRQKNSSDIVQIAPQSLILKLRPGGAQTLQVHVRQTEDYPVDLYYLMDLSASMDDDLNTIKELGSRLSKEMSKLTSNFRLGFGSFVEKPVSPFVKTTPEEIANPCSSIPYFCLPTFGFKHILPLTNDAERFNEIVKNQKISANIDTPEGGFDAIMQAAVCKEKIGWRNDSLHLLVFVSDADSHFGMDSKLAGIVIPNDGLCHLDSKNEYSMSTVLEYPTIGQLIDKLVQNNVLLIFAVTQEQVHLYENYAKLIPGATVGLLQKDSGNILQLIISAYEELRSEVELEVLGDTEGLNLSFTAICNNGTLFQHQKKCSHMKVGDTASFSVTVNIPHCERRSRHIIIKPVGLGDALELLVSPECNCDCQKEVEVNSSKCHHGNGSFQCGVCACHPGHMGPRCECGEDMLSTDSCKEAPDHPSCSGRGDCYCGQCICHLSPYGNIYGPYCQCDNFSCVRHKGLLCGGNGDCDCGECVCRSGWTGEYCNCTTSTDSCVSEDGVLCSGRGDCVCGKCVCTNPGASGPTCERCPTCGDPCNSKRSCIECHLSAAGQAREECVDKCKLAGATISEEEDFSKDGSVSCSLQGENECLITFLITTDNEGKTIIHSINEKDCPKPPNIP

[4] = target: T2, recombinant soluble αvβ6, P06756; assay: competitive sandwich ELISA; rsαvβ6 captured on anti-αv P2W7; competitor biotinylated fibronectin
[5] = target: T2, recombinant soluble αvβ6, P06756; assay: competitive (Screening) ELISA; rsαvβ6 captured on anti-αv P2W7; competitor biotinylated fibronectin
[6] = target: T2, recombinant soluble αvβ6, P06756; assay: non-competitive binding ELISA; biotinylated peptide on immobilised rsαvβ6

A20FMDV1 (peptide)
IC50, inhibition of adhesion of VB6 cells to LAP [1]: 38200 nM

RRGDLATIH (modifications not checked) [DD1]
IC50 of inhibition of αvβ6-dependent binding of 3T3β6.19 to LAP [2]: 216000 nM | adhesion of 3T3β6.19 to LAP in the presence of 20 µM peptide, % of control cell adhesion (% of control cell adhesion) [2]: 57

VPNLRGDLQVLA (modifications not checked) [DD19]
IC50 of inhibition of αvβ6-dependent binding of cells to LAP [2]: 190000 nM | IC50 [3]: 85 nM

GFTTGRRGDLATIHGMNRPF (modifications not checked) [A20LAP]
adhesion of 3T3β6.19 to LAP in the presence of 20 µM peptide, % of control cell adhesion (% of control cell adhesion) [2]: 32

TGRRGDLATI (modifications not checked) [DD3]
adhesion of 3T3β6.19 to LAP in the presence of 20 µM peptide, % of control cell adhesion (% of control cell adhesion) [2]: 79 | IC50 [4]: 22.6 nM

SAAARGDLEQLTSLLQNNVN (modifications not checked) [P_18INK]
IC50 [5]: 23 nM

CYVPNLRGDLQVLAQKVAKC (modifications not checked) [B-DBD2]
EC50 [6]: 1.7 nM

FTTGRRGDLATI (modifications not checked) [DD2]
IC50 [4]: 30.9 nM
